{
  "source": "paper PMC10144703",
  "about": "“Molecular Mechanism of Sirtuin 1 Inhibition by Human Immunodeficiency Virus 1 Tat Protein” (Life, 2023)",
  "key": {"[1]": {"target": "T1, human mini-Sirt1 (aa 183-505-(GGGS)2-641-665) (Homo sapiens, UniProt Q96EB6)", "T1 construct": "aa 183-505-(GGGS)2-641-665; made in house; host or cells: E. coli CodonPlus(DE3)", "T1 sequence (Q96EB6 with tags, fused parts or gaps limits assumed)": "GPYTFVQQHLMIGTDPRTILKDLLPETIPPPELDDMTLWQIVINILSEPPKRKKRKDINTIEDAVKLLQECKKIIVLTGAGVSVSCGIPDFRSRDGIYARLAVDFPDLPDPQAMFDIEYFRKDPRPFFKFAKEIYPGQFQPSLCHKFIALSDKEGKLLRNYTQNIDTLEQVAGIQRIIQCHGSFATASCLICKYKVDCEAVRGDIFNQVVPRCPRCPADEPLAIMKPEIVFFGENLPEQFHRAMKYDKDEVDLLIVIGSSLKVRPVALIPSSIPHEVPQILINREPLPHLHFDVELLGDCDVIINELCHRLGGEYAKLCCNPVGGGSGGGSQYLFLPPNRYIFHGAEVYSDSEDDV", "experiment": "FdL assay, mini-Sirt1", "format": "biochemical", "details": "FdL-1 at substrate Km, 15% (v/v) DMSO, n = 3", "source_text": "(§1) A human mini-Sirt1 construct (aa 183-505-(GGGS)2-641-665), as described in [27], was generated in a modified pET-19b with a TEV cleavage site. This construct and human full-length Sirt1 (fl-Sirt1) in pET-15b, Sirt1-(183-664) and Sirt1-(214-664) in pET-15b, mini-Sirt1-∆SBD (aa 214-505-(GGGS)2-641-665) and mini-Sirt1-∆ESA (aa 183–505) in a modified pET-19b with TEV cleavage site, Sirt2-(43-356) in a modified pET-19b with a His6-Sumo tag, Sirt3-(93-399) in a modified pET-32a with Trx-His6 tag and TEV cleavage site, hSirt3-(118-399) in pVFT3S (Sungkyunkwan University, Seoul, Republic of Korea) with His6-Trx tag and TEV cleavage site, Sirt5-(34-302) in pET-151/D-TOPO, and Sirt6-(1-355) in pQE80L.1 were purified as described. Shortly, proteins were expressed at 20 °C (mini-Sirt1 constructs at 16 °C) in E. coli CodonPlus(DE3), cell lysates were cleared by centrifugation, and proteins were purified via affinity chromatography using a nickel NTA column. After digestion with thrombin or TEV protease, proteins were re-run over the nickel NTA column, pooled, and concentrated. The samples were, then, subjected either directly to size exclusion chromatography in 50 mM Tris/HCl, pH 8.0, 150 mM NaCl, 1 mM TCEP, or to an ion exchange chromatography followed by size exclusion chromatography. Purified proteins (yield 1—4 mg/L expression culture) were concentrated to 12–18 mg/mL and shock frozen for storage at −80 °C.\n(§2) For sirtuin deacetylation activity measurements, we used two well-characterized assays, a coupled enzymatic assay, and the so-called FdL assay, respectively.\nKm values for FdL-1 were determined in the presence of 3 mM NAD^+ and Km values for NAD^+ in presence of 0.5 mM FdL-1 peptide. […] Reactions were incubated for 20 min, followed by a 1:1 addition of developer (2 mM NAM and 10 mg/mL trypsin in assay buffer). After incubation for 45 min at room temperature, fluorescence was measured with a FluoDia T70 (Photon Technology International Inc., Birmingham, NJ, USA) with an excitation wavelength of 365 nm and emission wavelength of 465 nm. […]"}, "[2]": {"target": "T2, mini-Sirt1 (Homo sapiens, UniProt Q96EB6)", "T2 construct": "aa 183-505-(GGGS)2-641-665; made in house; host or cells: E. coli CodonPlus(DE3)", "T2 sequence (Q96EB6 with tags, fused parts or gaps limits assumed)": "T1 sequence (Q96EB6 with tags, fused parts or gaps limits assumed)", "experiment": "Deacetylation of ac-Tat-46–54 as substrate by mini-Sirt1", "format": "biochemical", "experimental": "as §2\nContinuous coupled enzymatic sirtuin activity assays were conducted as described. […] For assays with Tat peptides, 5% (v/v) DMSO was added to all reactions to enhance peptide solubility. Reactions were monitored for 1 h at room temperature by absorption spectroscopy at 340 nm in a UV/vis plate reader (BioTek). The slope for the linear range (typically 5–25 min) was evaluated after background correction with measurements without NAD^+. Additional control reactions were run by either omitting enzyme or omitting peptide substrate to ensure that the signal measured reflects the NAD+-dependent deacetylation activity of the sirtuin."}, "[3]": {"tested_on": "human Sirt3-(118-399)", "experiment": "Crystal structure of Sirt3/Tat peptide complexes", "format": "binding", "details": "Sirt3/Tat-37–59 at 1.95 Å; Sirt3/ac-Tat-46–54 at 1.65 Å", "experimental": "For crystallization of the Sirt3 and Tat peptide complexes, 10 mg/mL human Sirt3-(118-399) in 20 mM Tris/HCl, pH 8.0, 150 mM NaCl, 5% (v/v) glycerol, 1 mM TCEP were incubated with 2 mM ac-Tat-46-54 or Tat-37-59 (the latter in 10% (v/v) DMSO) for 60 min at 20 °C. Both complexes were crystallized using the sitting-drop vapor-diffusion method at 20 °C with 100 mM MES, pH 6.0, 30% (w/v) PEG 200, 5% (w/v) PEG 3000 as reservoir solution for Sirt3/ac-Tat-46-54 and 100 mM CHES, pH 9.0, 20% (w/v) PEG 8000 for Sirt3/Tat-37-59. Crystals were cryoprotected with the respective reservoir solution supplemented with 25% (v/v) glycerol and flash-frozen in liquid nitrogen.\nDiffraction data were collected at BESSY II, beamline MX14.1 operated by Helmholtz Zentrum Berlin (Berlin, Germany) at 0.9184 Å wavelength. Indexing, scaling, and merging of the Sirt3/ac-Tat-46-54 complex data were performed with XDSAPP [37]. The Sirt3/Tat-37–59 complex data were indexed and integrated with DIALS [38] and further processed with CCP4 programs Rebatch, Pointless, Aimless, and cTruncate, with 5% of the reflections assigned to Rfree with Uniqueify. The complex structures were phased by molecular replacement with PHASER [40] and using a Sirt3/ac-ACS/carba-NAD (PDB ID 4FVT) and a Sirt3/ADPr complex (PDB ID 4BVB), respectively, as a search model. […]"}, "[4]": {"target": "T3, human full-length Sirt1 (fl-Sirt1) (Homo sapiens, UniProt Q96EB6)", "T3 construct": "human full-length Sirt1 (fl-Sirt1) in pET-15b; made in house; host or cells: E. coli CodonPlus(DE3)", "T3 sequence (Q96EB6 1-747)": "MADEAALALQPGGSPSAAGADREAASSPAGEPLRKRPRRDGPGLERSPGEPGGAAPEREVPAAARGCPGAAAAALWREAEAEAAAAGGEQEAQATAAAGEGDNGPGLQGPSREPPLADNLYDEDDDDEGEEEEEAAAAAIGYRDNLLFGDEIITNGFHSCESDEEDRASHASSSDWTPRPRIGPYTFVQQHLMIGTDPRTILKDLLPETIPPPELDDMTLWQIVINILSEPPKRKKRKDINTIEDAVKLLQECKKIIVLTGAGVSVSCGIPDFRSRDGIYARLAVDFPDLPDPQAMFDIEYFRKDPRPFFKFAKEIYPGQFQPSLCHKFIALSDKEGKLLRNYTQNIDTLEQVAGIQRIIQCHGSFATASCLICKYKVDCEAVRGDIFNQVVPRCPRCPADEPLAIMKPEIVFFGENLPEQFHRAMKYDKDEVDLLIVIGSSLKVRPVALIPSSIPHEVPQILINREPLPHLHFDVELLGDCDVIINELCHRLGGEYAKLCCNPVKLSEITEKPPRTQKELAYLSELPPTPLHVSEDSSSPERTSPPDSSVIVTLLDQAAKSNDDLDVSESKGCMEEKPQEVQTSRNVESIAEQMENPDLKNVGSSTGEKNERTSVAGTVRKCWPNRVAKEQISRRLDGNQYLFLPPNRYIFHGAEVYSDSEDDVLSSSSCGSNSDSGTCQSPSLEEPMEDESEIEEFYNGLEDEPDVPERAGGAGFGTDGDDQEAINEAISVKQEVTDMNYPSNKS", "experiment": "Continuous coupled enzymatic sirtuin activity assay, fl-Sirt1", "format": "biochemical", "details": "coupled-enzyme assay, n = 2", "source_text": "A human mini-Sirt1 construct (aa 183-505-(GGGS)2-641-665), as described in [27], was generated in a modified pET-19b with a TEV cleavage site. This construct and human full-length Sirt1 (fl-Sirt1) in pET-15b, Sirt1-(183-664) and Sirt1-(214-664) in pET-15b, mini-Sirt1-∆SBD (aa 214-505-(GGGS)2-641-665) and mini-Sirt1-∆ESA (aa 183–505) in a modified pET-19b with TEV cleavage site, Sirt2-(43-356) in a modified pET-19b with a His6-Sumo tag, Sirt3-(93-399) in a modified pET-32a with Trx-His6 tag and TEV cleavage site, hSirt3-(118-399) in pVFT3S (Sungkyunkwan University, Seoul, Republic of Korea) with His6-Trx tag and TEV cleavage site, Sirt5-(34-302) in pET-151/D-TOPO, and Sirt6-(1-355) in pQE80L.1 were purified as described. […]\nContinuous coupled enzymatic sirtuin activity assays were conducted as described. […] Reactions were monitored for 1 h at room temperature by absorption spectroscopy at 340 nm in a UV/vis plate reader (BioTek). The slope for the linear range (typically 5–25 min) was evaluated after background correction with measurements without NAD^+. Additional control reactions were run by either omitting enzyme or omitting peptide substrate to ensure that the signal measured reflects the NAD+-dependent deacetylation activity of the sirtuin."}, "[5]": {"target": "T3, human full-length Sirt1 (fl-Sirt1)", "experiment": "FdL deacetylation assay, fl-Sirt1", "format": "biochemical", "details": "FdL assay, 100 µM FdL-1, 500 µM NAD^+, pH 7.8, 37 °C; n = 2; read-out: IC50, fl-Sirt1, truncated Tat-Cys^− constructs", "source_text": "as §1, with “Purified proteins (yield 1—4 mg/L expression culture) were concentrated to 12–18 mg/mL and shock frozen for storage at −80 °C.” left out"}, "[6]": {"tested_on": "Sirt1", "details": "FdL assay, wildtype Tat; ref [9]; read-out: IC50, Sirt1 (previously reported); cited from earlier work"}},
  "note": "Where no end group is shown, it is not given here.",
  "data": [
    {"substance": "SYGRKKRRQ [Tat-46–54]", "values": [
      {"measurement": "IC50", "setting": "[1]; 37 °C, pH 7.8, ± s.d., read-out: IC50 (FdL assay), mini-Sirt1, non-acetylated Tat-46–54", "result": "131 ± 88.1", "unit": "µM"}
    ]},
    {"substance": "Tat-49–60: synthetic non-acetylated Tat fragment, residues 49–60 (RKKRRQRRRPSQ)", "values": [
      {"measurement": "inhibition of mini-Sirt1 by synthetic Tat peptides (Figure 2F)", "setting": "[1]; dose-dependent", "result": "weaker inhibition"},
      {"measurement": "inhibition of mini-Sirt1, titration (Figure 2G)", "setting": "[1]; titration", "result": "neither Tat-31–49 nor Tat-49–60 alone was sufficient for significant inhibition"}
    ]},
    {"substance": "ac-Tat-46–54: Lys50-acetylated Tat-46–54 peptide (SYGRK(Ac)KRRQ)", "values": [
      {"measurement": "Sirt1-dependent deacetylation (as substrate)", "setting": "[2]; Michaelis–Menten kinetics, mini-Sirt1, compared with ac-p53-Lys382, n = 3", "result": "efficient Sirt1-dependent deacetylation, even slightly more efficient than for its standard substrate peptide ac-p53-Lys382"},
      {"measurement": "inhibitory effects at later time points of the deacetylation assay", "setting": "[2]; time-course for deacetylation by mini-Sirt1, n = 3", "result": "did not observe any inhibitory effects at later time points"},
      {"measurement": "binding site/mode in Sirt3 crystal structure", "setting": "[3]", "result": "inserted in the substrate binding groove in the typical, β-sheet-like fashion"},
      {"measurement": "effect on fl-Sirt1 activity upon addition to assay containing p53-peptide", "setting": "[4]; 100 µM ac-p53 as basal substrate", "result": "expected increase of activity"},
      {"measurement": "onset of inhibition upon addition to assay containing p53-peptide", "setting": "[4]; fl-Sirt1, 100 µM ac-p53 as basal substrate", "result": "no indications of instant or delayed onset of inhibition"}
    ]},
    {"substance": "residues 21–63 of Tat-Cys^−: construct also lacking the N-terminal region from aa 1–20 (ASNRAHAKKSAYHSQVAFITKGLGISYGRKKRRQRRRPSQGGQ)", "values": [
      {"measurement": "IC50", "setting": "[5]", "result": "~30", "unit": "µM"}
    ]},
    {"substance": "wildtype Tat: HIV1 transactivator of transcription protein, wildtype, as previously reported", "values": [
      {"measurement": "IC50", "setting": "[6]", "result": 3.5, "unit": "µM"}
    ]}
  ]
}
